According to the supplement of paper PMC10065799, “High-throughput profiling of sequence recognition by tyrosine kinases and SH2 domains using bacterial peptide display” (eLife, 2023):

Legend:
Grb2 SH2 = Grb2 SH2 (UniProt P62993); test: SH2 binding enrichment of the phosphorylated peptide, bacterial display (enrichment ratio); higher = better substrate or ligand; peptides without Tyr show the background
SHP2-C SH2 = test: as above
c-Src SH2 = test: as above
c-Abl (mouse) = test: phosphorylation enrichment, bacterial display (enrichment ratio); higher = better substrate or ligand; peptides without Tyr show the background
AncSZ = test: as above
Jak2 = Jak2 (UniProt O60674); test: as above
FGFR3 = FGFR3 (UniProt P22607); test: as above
EPHB1 = EPHB1 (UniProt P54762); test: as above
Fer (mouse) = test: as above
Hck = Hck (UniProt P08631); test: as above
Fyn = Fyn (UniProt P06241); test: as above
MERTK = MERTK (UniProt Q12866); test: as above
FGFR1 = FGFR1 (UniProt P11362); test: as above
EPHB2 = EPHB2 (UniProt P29323); test: as above
Fes = Fes (UniProt P07332); test: as above
c-Src = test: as above
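For SH2 binding enrichment of the phosphorylated peptide, bacterial display in this document: peptide library displayed on the E. coli surface as eCPX fusions, selected cells deep-sequenced, score is each peptide's frequency after selection divided by its frequency in the input.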
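For phosphorylation enrichment, bacterial display in this document: 11-residue human phosphosite peptides and single-mutation variants displayed on the E. coli surface, counted by deep sequencing, each peptide's frequency after selection divided by its frequency in the unselected input library; frequency after pTyr selection over input frequency; kinase dosed for 20-30% of maximal phosphorylation in three min.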

Chain of MERTK (Q12866 whole entry, looked up): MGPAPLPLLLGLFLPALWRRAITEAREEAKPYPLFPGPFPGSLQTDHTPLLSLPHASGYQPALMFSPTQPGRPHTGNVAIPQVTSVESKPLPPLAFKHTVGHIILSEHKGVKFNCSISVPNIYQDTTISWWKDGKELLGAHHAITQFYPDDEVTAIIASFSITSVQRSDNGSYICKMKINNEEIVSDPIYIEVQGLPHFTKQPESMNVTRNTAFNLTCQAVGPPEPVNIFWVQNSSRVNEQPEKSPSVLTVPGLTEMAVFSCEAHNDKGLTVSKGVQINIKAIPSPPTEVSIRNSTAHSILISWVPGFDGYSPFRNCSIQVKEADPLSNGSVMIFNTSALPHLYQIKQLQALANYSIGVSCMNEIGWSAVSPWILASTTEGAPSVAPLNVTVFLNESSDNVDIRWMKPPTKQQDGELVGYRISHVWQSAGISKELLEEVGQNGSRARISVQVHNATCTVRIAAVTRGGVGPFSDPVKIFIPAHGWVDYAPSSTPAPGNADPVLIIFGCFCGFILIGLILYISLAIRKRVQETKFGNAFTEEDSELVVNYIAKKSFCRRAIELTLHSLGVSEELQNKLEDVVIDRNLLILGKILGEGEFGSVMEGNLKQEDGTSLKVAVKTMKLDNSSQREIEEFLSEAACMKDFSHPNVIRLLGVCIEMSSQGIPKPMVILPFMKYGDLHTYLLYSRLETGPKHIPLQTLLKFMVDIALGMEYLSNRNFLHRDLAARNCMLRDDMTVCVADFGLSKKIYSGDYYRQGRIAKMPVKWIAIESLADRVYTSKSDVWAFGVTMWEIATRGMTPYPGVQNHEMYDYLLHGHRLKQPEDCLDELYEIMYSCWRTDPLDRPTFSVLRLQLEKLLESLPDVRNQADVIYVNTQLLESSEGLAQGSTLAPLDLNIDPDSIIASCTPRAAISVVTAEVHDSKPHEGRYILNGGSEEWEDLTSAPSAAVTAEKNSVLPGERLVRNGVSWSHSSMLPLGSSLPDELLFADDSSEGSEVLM
Chain of FGFR1 (P11362 whole entry, looked up): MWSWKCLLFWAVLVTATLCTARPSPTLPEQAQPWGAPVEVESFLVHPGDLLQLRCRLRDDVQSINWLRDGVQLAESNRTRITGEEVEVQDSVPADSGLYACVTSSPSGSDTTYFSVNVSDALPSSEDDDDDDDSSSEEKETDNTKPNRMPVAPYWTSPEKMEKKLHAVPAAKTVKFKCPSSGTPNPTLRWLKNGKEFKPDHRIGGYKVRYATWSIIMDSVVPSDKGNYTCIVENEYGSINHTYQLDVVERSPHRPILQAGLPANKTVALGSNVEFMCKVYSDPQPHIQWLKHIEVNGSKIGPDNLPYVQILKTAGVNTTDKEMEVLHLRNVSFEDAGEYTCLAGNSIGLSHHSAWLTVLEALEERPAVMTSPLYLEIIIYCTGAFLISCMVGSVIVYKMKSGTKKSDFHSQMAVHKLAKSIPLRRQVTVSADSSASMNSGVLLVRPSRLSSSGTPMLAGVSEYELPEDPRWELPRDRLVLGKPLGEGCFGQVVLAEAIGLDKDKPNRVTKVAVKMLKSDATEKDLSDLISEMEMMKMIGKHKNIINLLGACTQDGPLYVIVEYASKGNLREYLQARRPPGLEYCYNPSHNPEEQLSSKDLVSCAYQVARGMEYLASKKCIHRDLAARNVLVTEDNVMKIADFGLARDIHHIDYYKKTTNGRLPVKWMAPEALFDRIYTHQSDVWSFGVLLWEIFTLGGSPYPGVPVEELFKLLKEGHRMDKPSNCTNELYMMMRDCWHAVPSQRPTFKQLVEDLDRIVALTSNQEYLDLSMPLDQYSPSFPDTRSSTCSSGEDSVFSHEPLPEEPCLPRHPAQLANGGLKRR
Chain of EPHB2 (P29323 whole entry, looked up): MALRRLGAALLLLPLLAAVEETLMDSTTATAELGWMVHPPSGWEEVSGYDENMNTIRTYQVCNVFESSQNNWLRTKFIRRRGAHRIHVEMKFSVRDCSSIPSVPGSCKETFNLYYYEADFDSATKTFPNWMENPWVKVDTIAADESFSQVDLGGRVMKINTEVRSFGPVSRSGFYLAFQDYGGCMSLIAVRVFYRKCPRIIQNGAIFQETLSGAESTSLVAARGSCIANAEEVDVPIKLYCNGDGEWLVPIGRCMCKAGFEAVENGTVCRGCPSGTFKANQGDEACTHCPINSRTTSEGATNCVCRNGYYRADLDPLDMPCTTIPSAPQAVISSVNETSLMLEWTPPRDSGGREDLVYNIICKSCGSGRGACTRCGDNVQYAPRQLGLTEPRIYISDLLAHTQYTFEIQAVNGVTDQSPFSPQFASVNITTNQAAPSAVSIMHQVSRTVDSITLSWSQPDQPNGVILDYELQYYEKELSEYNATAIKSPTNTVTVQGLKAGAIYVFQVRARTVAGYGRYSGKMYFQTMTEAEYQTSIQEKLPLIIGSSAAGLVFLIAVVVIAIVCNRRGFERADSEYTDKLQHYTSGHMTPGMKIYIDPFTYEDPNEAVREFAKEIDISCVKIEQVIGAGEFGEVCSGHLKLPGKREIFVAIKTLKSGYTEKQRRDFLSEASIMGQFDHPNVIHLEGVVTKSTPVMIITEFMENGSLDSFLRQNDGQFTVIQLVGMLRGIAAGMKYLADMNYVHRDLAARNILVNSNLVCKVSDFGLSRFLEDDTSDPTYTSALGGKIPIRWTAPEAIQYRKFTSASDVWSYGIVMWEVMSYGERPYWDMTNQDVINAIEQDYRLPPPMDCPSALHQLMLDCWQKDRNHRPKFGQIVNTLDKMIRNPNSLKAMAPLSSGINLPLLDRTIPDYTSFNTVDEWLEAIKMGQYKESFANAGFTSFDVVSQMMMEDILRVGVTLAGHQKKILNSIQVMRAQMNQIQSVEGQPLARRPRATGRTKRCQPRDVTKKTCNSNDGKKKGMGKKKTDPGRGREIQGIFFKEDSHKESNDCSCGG
Chain of Hck (P08631 whole entry, looked up): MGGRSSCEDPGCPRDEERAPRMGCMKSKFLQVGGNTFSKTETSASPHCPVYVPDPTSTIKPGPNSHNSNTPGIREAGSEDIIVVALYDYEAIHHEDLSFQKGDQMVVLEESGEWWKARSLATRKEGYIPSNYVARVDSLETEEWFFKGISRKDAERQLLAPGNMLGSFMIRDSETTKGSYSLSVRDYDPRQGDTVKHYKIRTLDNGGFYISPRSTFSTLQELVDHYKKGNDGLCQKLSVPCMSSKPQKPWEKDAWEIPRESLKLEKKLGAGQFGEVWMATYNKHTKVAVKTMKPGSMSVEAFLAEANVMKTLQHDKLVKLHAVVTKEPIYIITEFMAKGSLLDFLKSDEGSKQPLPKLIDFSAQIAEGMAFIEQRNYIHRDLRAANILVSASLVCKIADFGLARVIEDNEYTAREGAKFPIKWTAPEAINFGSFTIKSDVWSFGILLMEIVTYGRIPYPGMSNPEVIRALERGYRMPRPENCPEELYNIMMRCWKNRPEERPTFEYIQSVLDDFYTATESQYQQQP
Chain of Grb2 SH2 (P62993 whole entry, looked up): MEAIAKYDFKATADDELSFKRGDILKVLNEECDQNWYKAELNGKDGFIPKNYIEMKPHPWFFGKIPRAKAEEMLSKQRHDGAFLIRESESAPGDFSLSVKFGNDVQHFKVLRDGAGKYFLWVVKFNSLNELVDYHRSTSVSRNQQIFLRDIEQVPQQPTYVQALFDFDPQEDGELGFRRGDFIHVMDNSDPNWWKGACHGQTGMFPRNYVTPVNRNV
Chain of Fes (P07332 whole entry, looked up): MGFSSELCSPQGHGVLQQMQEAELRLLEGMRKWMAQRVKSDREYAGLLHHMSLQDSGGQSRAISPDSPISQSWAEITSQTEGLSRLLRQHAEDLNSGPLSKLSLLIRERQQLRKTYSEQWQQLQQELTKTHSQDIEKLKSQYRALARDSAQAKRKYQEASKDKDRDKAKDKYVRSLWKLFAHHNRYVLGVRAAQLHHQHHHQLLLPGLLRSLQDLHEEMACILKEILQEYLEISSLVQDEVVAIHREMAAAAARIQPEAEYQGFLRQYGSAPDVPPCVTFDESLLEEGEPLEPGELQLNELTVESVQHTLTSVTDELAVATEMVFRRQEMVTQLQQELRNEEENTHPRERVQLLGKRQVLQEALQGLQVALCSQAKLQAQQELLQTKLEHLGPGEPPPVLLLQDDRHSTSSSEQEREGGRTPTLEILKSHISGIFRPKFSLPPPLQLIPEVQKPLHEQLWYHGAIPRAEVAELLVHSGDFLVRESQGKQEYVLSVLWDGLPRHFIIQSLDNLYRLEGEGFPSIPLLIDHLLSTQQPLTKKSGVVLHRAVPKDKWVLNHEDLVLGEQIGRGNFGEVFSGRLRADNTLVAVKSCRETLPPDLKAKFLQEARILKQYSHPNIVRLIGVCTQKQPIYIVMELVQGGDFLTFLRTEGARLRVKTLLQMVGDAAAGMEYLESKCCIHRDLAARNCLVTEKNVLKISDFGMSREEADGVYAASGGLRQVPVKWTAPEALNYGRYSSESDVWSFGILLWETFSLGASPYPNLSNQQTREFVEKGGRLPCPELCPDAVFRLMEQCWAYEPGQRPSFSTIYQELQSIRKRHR
Chain of Fyn (P06241 whole entry, looked up): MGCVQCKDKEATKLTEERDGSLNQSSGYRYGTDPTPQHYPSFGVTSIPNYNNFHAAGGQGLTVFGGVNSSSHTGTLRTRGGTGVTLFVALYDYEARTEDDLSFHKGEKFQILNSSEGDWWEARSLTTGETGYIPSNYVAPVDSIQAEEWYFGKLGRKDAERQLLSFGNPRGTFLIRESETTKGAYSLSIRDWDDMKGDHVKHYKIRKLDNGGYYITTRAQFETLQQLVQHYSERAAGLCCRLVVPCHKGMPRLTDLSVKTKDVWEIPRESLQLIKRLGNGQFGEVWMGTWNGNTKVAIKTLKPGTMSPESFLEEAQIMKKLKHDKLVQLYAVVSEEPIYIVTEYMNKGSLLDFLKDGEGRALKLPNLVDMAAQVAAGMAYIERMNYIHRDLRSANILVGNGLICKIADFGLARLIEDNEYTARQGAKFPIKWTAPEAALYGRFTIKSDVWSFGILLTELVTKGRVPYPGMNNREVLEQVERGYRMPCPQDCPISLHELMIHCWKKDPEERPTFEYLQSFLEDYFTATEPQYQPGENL

Sequence	SH2 binding enrichment (Grb2 SH2)	SH2 binding enrichment (SHP2-C SH2)	SH2 binding enrichment (c-Src SH2)	phosphorylation enrichment (c-Abl (mouse))	phosphorylation enrichment (AncSZ)	phosphorylation enrichment (Jak2)	phosphorylation enrichment (FGFR3)	phosphorylation enrichment (EPHB1)	phosphorylation enrichment (Fer (mouse))	phosphorylation enrichment (Hck)	phosphorylation enrichment (Fyn)	phosphorylation enrichment (MERTK)	phosphorylation enrichment (FGFR1)	phosphorylation enrichment (EPHB2)	phosphorylation enrichment (Fes)	phosphorylation enrichment (c-Src)
VLNKGYRMVVN [HINT1_Y94_G89V]	0.707	0.538	0.424	0.361	0.557	0.433	0.396	0.362	0.311	0.368	0.383	0.339	0.392	0.343	0.539	0.326
FTYDPYSEEDP [IL2RB_Y387]	0.851	0.694	0.555	0.654	1.05	0.957	0.822	0.564	0.475	1.01	1.28	0.389	0.503	0.581	1.15	1.46
QRKPSYNQLPS [BRCA2_Y71_A75P]	0.858	0.648	0.423	1.08	0.886	0.72	0.598	0.449	0.536	0.691	0.599	0.567	0.557	0.522	0.767	0.682
EEDPEYKKKFR [FAM161A_Y278]	1.14	0.904	0.751	0.647	1.1	1.01	0.544	0.427	0.608	0.487	0.61	0.466	0.66	0.441	0.99	0.642
HLVLNYGVCIC [JAK2_Y613_V617I]	0.985	0.597	0.614	1.52	1.52	1.68	1.46	1.39	0.67	0.484	0.551	0.535	0.607	0.92	2.09	0.576
LQLLGDRPVFS [CHST6_Y358_Y358D_YF]	0.749	0.762	0.532	0.673	0.628	0.633	0.542	0.521	0.378	0.41	0.356	0.388	0.448	0.487	0.795	0.377
GGFNNYGFGND [HNRNPH3_Y159_YF]	0.875	0.697	0.467	0.548	0.654	0.627	0.611	0.733	0.463	0.437	0.465	0.397	0.514	0.902	0.841	0.431
SSSGGYGGGYG [KRT19_Y61_A60G]	0.924	0.62	0.462	0.374	0.456	0.479	0.335	0.326	0.333	0.379	0.352	0.342	0.408	0.337	0.534	0.377
CSHMFYGKQCC [ADAMTS16_Y1211_K1209M]	1.14	0.827	0.772	0.713	0.839	0.852	0.606	0.587	0.539	0.519	0.653	0.485	0.464	0.543	1.01	0.573
KDGSGYISAAE [CALM1_Y100_N98S]	0.715	0.816	0.465	0.544	0.648	0.6	0.496	0.388	0.369	0.444	0.476	0.464	0.456	0.409	0.82	0.4
GSSEDYLHMVH [NIPBL_Y247]	0.743	0.556	0.465	0.646	0.978	0.874	1	0.475	0.416	0.449	0.423	0.485	1.07	0.473	0.874	0.524
SVVVPYGPPEV [TP53_Y220_E221G]	0.835	0.671	0.537	0.601	0.75	0.689	0.556	0.472	0.402	0.41	0.46	0.476	0.57	0.543	0.739	0.425
QMWLKYSQSDL [SMC1A_Y714_R711W]	1.02	0.878	0.455	1.11	1.67	1.27	1.08	0.637	0.512	0.546	0.485	0.505	0.701	0.562	1.8	0.668
AIGFEYSEINI [SIGLEC12_Y588_YF]	0.632	0.86	0.923	0.689	1.14	1.22	1.69	0.481	3.84	1.14	0.642	0.574	2.77	0.5	1.04	1.46
